The supplement of paper PMC11246515
± gives the standard deviation of the averaged measurements.

Test: total protein half-life in vivo (active degradation + dilution); higher = more stable protein
[1] = E. coli NCM3722 delta-clpP delta-lon delta-hslV, growth: N-lim chemostat, doubling time 6 h
[2] = E. coli NCM3722 delta-clpP, growth: N-lim chemostat, doubling time 6 h
[3] = E. coli NCM3722 delta-hslV, growth: N-lim chemostat, doubling time 6 h
[4] = E. coli NCM3722 delta-lon, growth: N-lim chemostat, doubling time 6 h
[5] = E. coli NCM3722 delta-smpB, growth: N-lim chemostat, doubling time 6 h
[6] = wild type E. coli NCM3722, growth: C-lim chemostat, doubling time 3 h
[7] = wild type E. coli NCM3722, growth: C-lim chemostat, doubling time 6 h
[8] = wild type E. coli NCM3722, growth: C-lim chemostat, doubling time 12 h
[9] = wild type E. coli NCM3722, growth: N-lim chemostat, doubling time 6 h
[10] = wild type E. coli NCM3722, growth: N-lim chemostat, doubling time 12 h
[11] = wild type E. coli NCM3722, growth: P-lim chemostat, doubling time 6 h
[12] = wild type E. coli NCM3722, growth: P-lim chemostat, doubling time 12 h

Sequence: MATIDSMNKDTTRLSDGPDWTFDLLDVYLAEIDRVAKLYRLDTYPHQIEVITSEQMMDAYSSVGMPINYPHWSFGKKFIETERLYKHGQQGLAYEIVINSNPCIAYLMEENTITMQALVMAHACYGHNSFFKNNYLFRSWTDASSIVDYLIFARKYITECEERYGVDEVERLLDSCHALMNYGVDRYKRPQKISLQEEKARQKSREEYLQSQVNMLWRTLPKREEEKTVAEARRYPSEPQENLLYFMEKNAPLLESWQREILRIVRKVSQYFYPQKQTQVMNEGWATFWHYTILNHLYDEGKVTERFMLEFLHSHTNVVFQPPYNSPWYSGINPYALGFAMFQDIKRICQSPTEEDKYWFPDIAGSDWLETLHFAMRDFKDESFISQFLSPKVMRDFRFFTVLDDDRHNYLEISAIHNEEGYREIRNRLSSQYNLSNLEPNIQIWNVDLRGDRSLTLRYIPHNRAPLDRGRKEVLKHVHRLWGFDVMLEQQNEDGSIELLERCPPRMGNL
- total protein half-life in vivo [1]: 4.27 ± 0.81 h
- total protein half-life in vivo [2]: 2.4 ± 0.062 h
- total protein half-life in vivo [3]: 1.59 ± 0.2 h
- total protein half-life in vivo [4]: 1.41 ± 0.15 h
- total protein half-life in vivo [5]: 1.49 ± 0.034 h
- total protein half-life in vivo [6]: 1.05 ± 0.18 h
- total protein half-life in vivo [7]: 1.49 ± 0.059 h
- total protein half-life in vivo [8]: 1.94 ± 0.49 h
- total protein half-life in vivo [9]: 1.48 ± 0.34 h
- total protein half-life in vivo [10]: 1.65 ± 0.15 h
- total protein half-life in vivo [11]: 1.48 ± 0.55 h
- total protein half-life in vivo [12]: 2.27 ± 0.67 h

Sequence: MATIKDVAKRANVSTTTVSHVINKTRFVAEETRNAVWAAIKELHYSPSAVARSLKVNHTKSIGLLATSSEAAYFAEIIEAVEKNCFQKGYTLILGNAWNNLEKQRAYLSMMAQKRVDGLLVMCSEYPEPLLAMLEEYRHIPMVVMDWGEAKADFTDAVIDNAFEGGYMAGRYLIERGHREIGVIPGPLERNTGAGRLAGFMKAMEEAMIKVPESWIVQGDFEPESGYRAMQQILSQPHRPTAVFCGGDIMAMGALCAADEMGLRVPQDVSLIGYDNVRNARYFTPALTTIHQPKDSLGETAFNMLLDRIVNKREEPQSIEVHPRLIERRSVADGPFRDYRR [P0ACP7]
- total protein half-life in vivo [1]: 5.38 ± 0.92 h
- total protein half-life in vivo [2]: 5.291 ± 0.032 h
- total protein half-life in vivo [3]: 4.538 ± 0.044 h
- total protein half-life in vivo [4]: 5.39 ± 0.36 h
- total protein half-life in vivo [5]: 4.55 ± 0.3 h
- total protein half-life in vivo [6]: 3.02 ± 0.049 h
- total protein half-life in vivo [7]: 5.87 ± 0.35 h
- total protein half-life in vivo [8]: 10.4 ± 1.1 h
- total protein half-life in vivo [9]: 5.02 ± 0.61 h
- total protein half-life in vivo [10]: 7.74 ± 1.6 h
- total protein half-life in vivo [11]: 5.29 ± 0.41 h
- total protein half-life in vivo [12]: 10.9 ± 1.4 h

Sequence: MATLKDIAIEAGVSLATVSRVLNDDPTLNVKEETKHRILEIAEKLEYKTSSARKLQTGAVNQHHILAIYSYQQELEINDPYYLAIRHGIETQCEKLGIELTNCYEHSGLPDIKNVTGILIVGKPTPALRAAASALTDNICFIDFHEPGSGYDAVDIDLARISKEIIDFYINQGVNRIGFIGGEDEPGKADIREVAFAEYGRLKQVVREEDIWRGGFSSSSGYELAKQMLAREDYPKALFVASDSIAIGVLRAIHERGLNIPQDISLISVNDIPTARFTFPPLSTVRIHSEMMGSQGVNLVYEKARDGRALPLLVFVPSKLKLRGTTR
- total protein half-life in vivo [1]: 5.54 ± 0.078 h
- total protein half-life in vivo [2]: 6.95 ± 1.2 h
- total protein half-life in vivo [3]: 5.31 ± 0.62 h
- total protein half-life in vivo [4]: 5.72 ± 0.54 h
- total protein half-life in vivo [5]: 5.35 ± 0.066 h
- total protein half-life in vivo [6]: 2.89 ± 0.27 h
- total protein half-life in vivo [7]: 5.94 ± 0.29 h
- total protein half-life in vivo [8]: 9.8 ± 0.15 h
- total protein half-life in vivo [9]: 5.07 ± 0.53 h
- total protein half-life in vivo [11]: 6.01 ± 0.76 h
- total protein half-life in vivo [12]: 13.4 ± 2.6 h

Sequence: MATLTAKNLAKAYKGRRVVEDVSLTVNSGEIVGLLGPNGAGKTTTFYMVVGIVPRDAGNIIIDDDDISLLPLHARARRGIGYLPQEASIFRRLSVYDNLMAVLQIRDDLSAEQREDRANELMEEFHIEHLRDSMGQSLSGGERRRVEIARALAANPKFILLDEPFAGVDPISVIDIKRIIEHLRDSGLGVLITDHNVRETLAVCERAYIVSQGHLIAHGTPTEILQDEHVKRVYLGEDFRL [P0A9V1]
- total protein half-life in vivo [1]: 6.21 ± 0.31 h
- total protein half-life in vivo [2]: 6.33 ± 0.48 h
- total protein half-life in vivo [3]: 5.919 ± 0.031 h
- total protein half-life in vivo [4]: 6.05 ± 0.57 h
- total protein half-life in vivo [5]: 5.51 ± 0.55 h
- total protein half-life in vivo [6]: 2.811 ± 0.004 h
- total protein half-life in vivo [7]: 6.061 ± 0.04 h
- total protein half-life in vivo [8]: 11.2 ± 0.66 h
- total protein half-life in vivo [9]: 5.52 ± 0.24 h
- total protein half-life in vivo [10]: 13.3 ± 0.87 h
- total protein half-life in vivo [11]: 5.46 ± 0.24 h
- total protein half-life in vivo [12]: 12.4 ± 0.82 h

Sequence: MATNAKPVYKRILLKLSGEALQGTEGFGIDASILDRMAQEIKELVELGIQVGVVIGGGNLFRGAGLAKAGMNRVVGDHMGMLATVMNGLAMRDALHRAYVNARLMSAIPLNGVCDSYSWAEAISLLRNNRVVILSAGTGNPFFTTDSAACLRGIEIEADVVLKATKVDGVFTADPAKDPTATMYEQLTYSEVLEKELKVMDLAAFTLARDHKLPIRVFNMNKPGALRRVVMGEKEGTLITE [P0A7E9]
- total protein half-life in vivo [1]: 4.84 ± 0.3 h
- total protein half-life in vivo [2]: 5.18 ± 0.45 h
- total protein half-life in vivo [3]: 4.79 ± 0.38 h
- total protein half-life in vivo [4]: 5.16 ± 0.34 h
- total protein half-life in vivo [5]: 4.49 ± 0.16 h
- total protein half-life in vivo [6]: 3.24 ± 0.27 h
- total protein half-life in vivo [7]: 7 ± 1.2 h
- total protein half-life in vivo [8]: 10.4 ± 1.8 h
- total protein half-life in vivo [9]: 4.93 ± 0.33 h
- total protein half-life in vivo [10]: 8.29 ± 1 h
- total protein half-life in vivo [11]: 5.84 ± 0.27 h
- total protein half-life in vivo [12]: 14.4 ± 0.48 h

Sequence: MATNLRGVMAALLTPFDQQQALDKASLRRLVQFNIQQGIDGLYVGGSTGEAFVQSLSEREQVLEIVAEEAKGKIKLIAHVGCVSTAESQQLAASAKRYGFDAVSAVTPFYYPFSFEEHCDHYRAIIDSADGLPMVVYNIPALSGVKLTLDQINTLVTLPGVGALKQTSGDLYQMEQIRREHPDLVLYNGYDEIFASGLLAGADGGIGSTYNIMGWRYQGIVKALKEGDIQTAQKLQTECNKVIDLLIKTGVFRGLKTVLHYMDVVSVPLCRKPFGPVDEKYLPELKALAQQLMQERG [P0A6L4]
- total protein half-life in vivo [1]: 2.77 ± 0.23 h
- total protein half-life in vivo [2]: 1.88 ± 0.19 h
- total protein half-life in vivo [3]: 3.01 h
- total protein half-life in vivo [4]: 2.66 h
- total protein half-life in vivo [5]: 1.84 ± 0.085 h
- total protein half-life in vivo [6]: 2.81 ± 0.23 h
- total protein half-life in vivo [7]: 3.81 ± 0.35 h
- total protein half-life in vivo [8]: 5.83 ± 1.4 h
- total protein half-life in vivo [9]: 2.28 h
- total protein half-life in vivo [10]: 2.1 ± 0.3 h
- total protein half-life in vivo [11]: 4.43 ± 0.18 h
- total protein half-life in vivo [12]: 8.79 h
